PMC5766580, “Each protomer of a dimeric YidC functions as a single membrane insertase” (Scientific Reports, 2018)

Target: the molecule itself
Test: native gel or EMSA; Blue Native PAGE of inner membrane vesicles from a cell lysate, Western blot

B1: cysteine-less YidC (YidC0), monomeric construct (natural protein, E. coli, UniProt P25714 1-548, looked up)
chain: MDSQRNLLVIALLFVSFMIWQAWEQDKNPQPQAQQTTQTTTTAAGSAADQGVPASGQGKLISVKTDVLDLTINTRGGDVEQALLPAYPKELNSTQPFQLLETSPQFIYQAQSGLTGRDGPDNPANGPRPLYNVEKDAYVLAEGQNELQVPMTYTDAAGNTFTKTFVLKRGDYAVNVNYNVQNAGEKPLEISSFGQLKQSITLPPHLDTGSSNFALHTFRGAAYSTPDEKYEKYKFDTIADNENLNISSKGGWVAMLQQYFATAWIPHNDGTNNFYTANLGNGIAAIGYKSQPVLVQPGQTGAMNSTLWVGPEIQDKMAAVAPHLDLTVDYGWLWFISQPLFKLLKWIHSFVGNWGFSIIIITFIVRGIMYPLTKAQYTSMAKMRMLQPKIQAMRERLGDDKQRISQEMMALYKAEKVNPLGGSFPLLIQMPIFLALYYMLMGSVELRQAPFALWIHDLSAQDPYYILPILMGVTMFFIQKMSPTTVTDPMQQKIMTFMPVIFTVFFLWFPSGLVLYYIVSNLVTIIQQQLIYRGLEKRGLHSREKKKS
notes: membrane insertase YidC of E. coli, the plasmid-encoded yidC gene; cysteine 423 replaced by serine; Copies 2 is the dimeric form seen on Blue Native PAGE. 'Full length' rests on the words 'the yidC gene'; also called YidC-C0; monomeric YidC0; source: E. coli MK6, from plasmid pGZ119-YidC0, in inner membrane vesicles from a cell lysate
stoichiometry N: 2
